Data set [1] addresses T1, cJun bZIP (human, UniProt P05412 252-308, limits assumed).
T1 construct: Purified from a His-SUMO fusion with the tag cleaved off; also called c-Jun bZIP domain; 60 amino acid c-Jun bZIP construct
T1 chain: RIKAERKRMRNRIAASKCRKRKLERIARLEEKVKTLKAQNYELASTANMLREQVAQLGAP
Kind of data set: ITC, antagonist injected into cJun, one site model.

The target of the next data set is T2, cJun/TRE DNA interaction (Homo sapiens, UniProt P05412, S292Y).
T2 construct: The same 60 amino acid c-Jun bZIP construct was used for all experiments; His-SUMO (N, cleaved yes); made in house; host or cells: E. coli
The experiment in a line: CD cJun/TRE DNA antagonism (shift of TRE DNA peak at ~281 nm, Hill fit). The format is biochemical. Conditions: HingeW concentrations of 50 and 100 μM.

For data set [2], the target named is T1, cJun bZIP. Kind of data set: ITC (PEAQ-ITC), peptide injected into cJun, one site model.
The target in data set [3] is T1, cJun bZIP. Kind of data set: CD spectra at 20 °C.
Another data set addresses cJun (Homo sapiens, UniProt P05412, S292Y). The experiment in a line: Isothermal titration calorimetry, Example 1 (MicroCal VP-ITC). The format is binding. Also noted: The same 60 amino acid c-Jun bZIP construct was used for all experiments; His-SUMO (N, cleaved yes); made in house; host or cells: E. coli. Conditions: peptide 10 μM injected into cJun 1 μM, single site model; listed as HingeW. How it is done: Using a MicroCal VP-ITC instrument (Malvern), 10 μL injections of antagonist peptide (HingeW or A-FosW) at 10 μM were injected into the cell containing cJun at 1 μM. MicroCal Origin software was used to record and analyse the heat change upon addition. Control experiments involved the injection of the antagonist peptide sample into the cell containing ITC buffer alone to determine the heat of dilution which was subtracted. The resulting binding data were fit to a one site binding model to extract the enthalpy change of binding (ΔH) and the equilibrium binding constant (KD), from which the free energy change of binding (ΔG) and the entropy change of binding (AS) was calculated (Wiseman et al., 1989). Thermodynamic parameters are presented as an average of two independent experiments with errors given as one standard deviation.

Data set [4] can be described thus: CD spectra and thermal denaturation of peptide-only samples (helicity, homodimer Tm). The settings on record: peptide alone.
For data set [5], the target named is T1, cJun bZIP. The experiment in a line: cell-based or functional assay.
The next data set can be described thus: Serum stability (LC-MS). Conditions: human serum, 37° C. In kind it is in vitro ADME. How it is done:
Serum Stability: Peptide stocks (600 μM) were prepared in water and 50 μL added to 950 μL human serum (Merck) before incubation at 37° C. […] The supernatant was analysed by LC-MS and quantified using the sum of the two largest charge state intensities (1: 9+, 10+; 23,24: 3+, 4+).

Data set [6] concerns the target T1, cJun bZIP.
Data set [7] addresses T1, cJun bZIP. Kind of data set: CD thermal denaturation, peptide 5 µM and c-Jun 5 µM.
For data set [8], the target named is cJun bZIP (Homo sapiens, UniProt P05412, S292Y). Kind of data set: CD spectra and thermal denaturation of peptide/cJun heterodimers.

B1: HingeW (peptide)
peptide: MASLEQRAEELARENEELEKEAEELVVEEDVLEEEIEQLEERNYALRKEIEDLQKQLEKLGAPHHHHHH
notes: Recombinant, capped (MAS at the N-terminus, GAP at the C-terminus) and C-terminally 6xHis-tagged, 69 amino acids; also called peptide 1
For the molecule B1, in the data set with cJun bZIP [1], the dissociation constant (Kd) stood at 0.0144 µM, the “TΔS (ITC)” value is -39.2 kJ/mol, the “ΔG (ITC)” value is -46.2 kJ/mol and the “ΔH (ITC)” value was -85.4 kJ/mol. For the same molecule, the “antagonism of the cJun/TRE interaction” value with cJun/TRE DNA interaction is listed as “complete antagonism”. In the data set with cJun bZIP [2], the “-TΔS” value came to 73.4 kJ/mol; the “Stoichiometry, n” value is 0.93; the ΔG is -56.3 kJ/mol; the ΔH is -130 kJ/mol. Besides, the “increase in α-helical content relative to the average of the two component spectra” value in the data set with cJun bZIP [3] came to 82%. This molecule displayed a dissociation constant (Kd) with cJun of 14 nM. For the same molecule, in [4], the “Fraction helicity at 20° C. (CD)” value came to 27.2% and the “helicity in isolation, less helical relative to A-FosW” value stood at 12.9%. Further, the “IC50 CD” value in the data set with cJun bZIP [5] was 13.4 µM. Also, in “Serum stability (LC-MS)” (after 96 hours), the “peak intensities relative to starting values” is “no peaks corresponding to 1 are observed”. In “Serum stability (LC-MS)” (at 24 hours), this molecule returned a degraded of 67%. In the data set “Serum stability (LC-MS)” (exponential decay fit), this molecule yielded a half-life of 18.9 h. Moreover, in the data set with cJun bZIP [6], the “increase in heterodimer Tm against A-FosW/cJun” value turned out to be 1.3 ° C. Further, the “Tm (° C.) of peptide-c-Jun heterodimer” value with cJun bZIP [7] amounted to 71.2 ° C. Moreover, the “increase in heterodimer Tm relative to A-FosW/cJun” value in the data set with cJun bZIP [8] is 1.3 °C. Further, the “Fraction helicity at 20° C. (CD)” value with cJun bZIP [8] (heterodimer with c-Jun, equimolar, 10 μM total) amounted to 34.7%. Moreover, the “Tm (° C.) (CD)” value with cJun bZIP [8] (heterodimer with cJun bZIP, Example 1, listed as HingeW) was 71.2 °C. Further, the “ΔTm from component average (CD)” value in the data set with cJun bZIP [8] (heterodimer with cJun vs average of component profiles, listed as HingeW) was roughly 40 °C.

The record behind these values is patent US20250188151A1, “C-JUN ANTAGONIST PEPTIDES” (The University of Bath, priority 2022, published 2025).
